The values that follow come from patent US20030040612A1 (MOUNT SINAI SCHOOL OF MEDICINE, published 2003).

In experiment [1] the target is SNT-1 PTB domain (residues 11-140 of SEQ ID NO:1) (human) (UniProt Q8WU20). Nature of the experiment: method not stated.
In experiment [2] the target is T1, SNT-1 PTB domain (residues 11-140 of SEQ ID NO:1) (human, UniProt Q8WU20 11-140).
T1 construct: Recombinant from E. coli, isotope labelled for NMR; His6 tag cleaved with thrombin; Used in NMR and ITC; also called PTB Domain of SNT-1; SNT PTB domain
T1 sequence: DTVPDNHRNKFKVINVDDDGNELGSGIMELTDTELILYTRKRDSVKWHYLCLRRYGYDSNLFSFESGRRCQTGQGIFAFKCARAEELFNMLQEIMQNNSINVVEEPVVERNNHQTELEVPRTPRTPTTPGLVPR
Put plainly: isothermal titration calorimetry (ITC).

Experiment [3] has as its target T2, juxtamembrane region of hFGFR1 as GAL4 DNA binding domain (BD) fusion protein, wild type (called hFGFR1 (human); SEQ ID NO:2 is …).
T2 construct: Yeast two-hybrid construct; also called wild type hFGFR1
Nature of the experiment: yeast two-hybrid, colony growth on His-, Leu-, Trp- medium. How it is done: Mutagenesis and Yeast Two-Hybrid Binding Assays: The yeast two-hybrid binding studies of the SNT-1 PTB domain binding to hFGFR1 or tyrosine-phosphorylated TRK were performed as described previously [Xu et al., J. Biol. Chem. 273:17987-17990 (1998)]. Briefly, SNT-1 cDNA fragments were cloned into the pACT2 expression vector (Clontech) for expression as GAL4 DNA activation domain (AD) fusion proteins followed by C-terminal AU1-epitope tags. The juxtamembrane region of hFGFR1 was cloned into the pAS2-1 expression vector (Clontech) for expression as a GAL4 DNA binding domain (BD) fusion protein. This plasmid served as a template for site-directed mutagenesis of hFGFR1 using the QuikChange kit (Stratagene). DNA sequencing confirmed the mutations. AD and BD plasmids were co-transformed into Saccharomyces cerevisiae strain pJ69-4A and plated onto selective media. The synthetic medium lacking the amino acids Leu and Trp (Leu⁻, Trp⁻) selected for plasmid uptake. […] Levels of protein interaction were scored by relative colony growth on these plates. […] Similarly, expression of wild type and mutant hFGFR1 was detected by immunoprecipitation with a rabbit polyclonal antibody specific for BD (Santa Cruz Biotech) and western blotting with mouse monoclonal anti-BD antibody (Santa Cruz Biotech).

As a reminder, the Kd is the constant that tells how readily two partners part at equilibrium. Read a low Kd as tighter binding. In experiment [1], “tyrosine-phosphorylated peptide LVIAGNPApYRS (SEQ ID NO:4)” returned a Kd of 1 µM and a fold higher affinity than for the FGFR derived peptide of SEQ ID NO:3 of 10 fold.

B1: hFGFR1 peptide, 22-residue peptide derived from the juxtamembrane region of hFGFR1 (residues 409-430 of SEQ ID NO:2), HSQMAVHKLAKSIPLRRQVTVS (SEQ ID NO:3) (peptide)
peptide: HSQMAVHKLAKSIPLRRQVTVS
notes: Synthetic peptide, not phosphorylated; also called FGFR peptide; FGF receptor peptide
Consider B1, for which, in experiment [2], the dissociation constant Kd was about 10 µM.

B2: truncated SNT-1 PTB domain lacking the β8 region (residues 2-111), GAL4 AD fusion (other, not shown: large carriers; small tags and cut ends)
chain: GSCCSCPDKDTVPDNHRNKFKVINVDDDGNELGSGIMELTDTELILYTRKRDSVKWHYLCLRRYGYDSNLFSFESGRRCQTGQGIFAFKCARAEELFNMLQEIMQNNSIN
notes: Yeast two-hybrid construct; also called SNT-1 PTB domain protein lacking the β8 strand
With B2, the binding result in experiment [3] is given as “no binding”.
